# Test results reported in PMC7822592, “The half-life of the bone-derived hormone osteocalcin is regulated through O-glycosylation in mice, but not in humans” (eLife, 2020).
# No end group written: not given here.
# Columns and labels:
# INS-1 832/3 cells [1] = test: OCN stability in INS-1 832/3 cell culture media; assay type: in vitro ADME, rat; conditions: 8 hours at 4°C without cells, ELISA
# [2] = In vivo half-life assay, serum OCN after intraperitoneal injection in Bglap-/- mice; parameters: species or system mouse; conditions: for serum OCN / in vivo half-life / % OCN from initial (relative to maximum at 30 min) / % OCN from initial, mean used for 1/2 life: 40 ng/g i.p.; for serum OCN: ELISA; for in vivo half-life: estimated from declining phase after maximum at 30 min, serum ELISA; for % OCN from initial (relative to maximum at 30 min) / % OCN from initial, mean used for 1/2 life: serum, fasted Bglap-/- mice
# Experimental: For in vivo half-life assay, Bglap-/- male mice were injected intraperitoneally with 40 or 80 ng/g of body weight of mouse O-glycosylated ucOCN or non-glycosylated ucOCN, serum OCN level was analyzed at indicated time points using total mouse OCN ELISA. In all ex vivo and in vivo studies, mouse or human proteins were prepared in saline solution (0.9% NaCl) containing BSA (35 mg/ml) as a carrier.
# INS-1 832/3 cells [3] = test: Ins1 gene expression in INS-1 832/3 cells treated with ucOCN; assay type: cell-based, rat; conditions: 8 hr; for Ins1 gene expression (Fold change relative to vehicle): 0.3 ng/mL, qPCR
# Experimental: The INS-1 832/3 rat insulinoma cell line (Millipore-Sigma) was cultured in RPMI-1640 with 11.1 mM D-glucose, supplemented with 2 mM L-glutamine, 1 mM sodium pyruvate, 10 mM HEPES, 0.05 mM β-mercaptoethanol and 10% FBS ([Hohmeier et al., 2000]). On day 1, cells were plated at 3 × 10^5 cells per well in 12-well plates and on day 5, cells were washed with PBS and incubated with culture media containing 5 mM D-glucose. Twenty-four hours later, cells were washed with PBS and incubated for 4 hr in culture media containing 1% FBS, 5 mM D-glucose and 0.1% BSA. OCN was added for 8 hr before supernatants and cells were harvested. ucOCN and O-gly ucOCN concentration were measured in supernatants by ELISA and cells were lyzed and RNA extracted as described in the material and methods section. Gene expression was analyzed using rat specific primers for Ins1 and Gapdh.
substance,measurement,setting,value
"ucOCN: Non-glycosylated uncarboxylated mouse osteocalcin produced in bacteria (YLGASVPSPDPLEPTREQCELNPACDELSDQYGLKTAYKRIYGITI; ends and bridges not checked; cysteine pairing not given here; UniProt P86546 50-95, looked up)",OCN in stimulation media,INS-1 832/3 cells [1]; replicate 1,0.15 ng/mL
same,OCN in stimulation media,INS-1 832/3 cells [1]; replicate 2,0.18 ng/mL
same,OCN in stimulation media,INS-1 832/3 cells [1]; replicate 3,0.17 ng/mL
same,serum OCN,"[2]; Bglap-/- male mice fasted 16 hr, 15 min, mouse 1",21.6 ng/mL
same,serum OCN,"[2]; Bglap-/- male mice fasted 16 hr, 15 min, mouse 2",16.5 ng/mL
same,serum OCN,"[2]; Bglap-/- male mice fasted 16 hr, 15 min, mouse 3",22.3 ng/mL
same,serum OCN,"[2]; Bglap-/- male mice fasted 16 hr, 15 min, mouse 4",21.8 ng/mL
same,serum OCN,"[2]; Bglap-/- male mice fasted 16 hr, 30 min, mouse 1",29.0 ng/mL
same,serum OCN,"[2]; Bglap-/- male mice fasted 16 hr, 30 min, mouse 2",18.8 ng/mL
same,serum OCN,"[2]; Bglap-/- male mice fasted 16 hr, 30 min, mouse 3",19.1 ng/mL
same,serum OCN,"[2]; Bglap-/- male mice fasted 16 hr, 30 min, mouse 4",16.7 ng/mL
same,serum OCN,"[2]; Bglap-/- male mice fasted 16 hr, 60 min, mouse 1",21.9 ng/mL
same,serum OCN,"[2]; Bglap-/- male mice fasted 16 hr, 60 min, mouse 2",14.4 ng/mL
same,serum OCN,"[2]; Bglap-/- male mice fasted 16 hr, 60 min, mouse 3",15.0 ng/mL
same,serum OCN,"[2]; Bglap-/- male mice fasted 16 hr, 60 min, mouse 4",14.8 ng/mL
same,serum OCN,"[2]; Bglap-/- male mice fasted 16 hr, 90 min, mouse 1",15.6 ng/mL
same,serum OCN,"[2]; Bglap-/- male mice fasted 16 hr, 90 min, mouse 2",12.2 ng/mL
same,serum OCN,"[2]; Bglap-/- male mice fasted 16 hr, 90 min, mouse 3",12.9 ng/mL
same,serum OCN,"[2]; Bglap-/- male mice fasted 16 hr, 90 min, mouse 4",13.2 ng/mL
same,serum OCN,"[2]; Bglap-/- male mice fasted 16 hr, 120 min, mouse 1",11.8 ng/mL
same,serum OCN,"[2]; Bglap-/- male mice fasted 16 hr, 120 min, mouse 2",10.3 ng/mL
same,serum OCN,"[2]; Bglap-/- male mice fasted 16 hr, 120 min, mouse 3",10.8 ng/mL
same,serum OCN,"[2]; Bglap-/- male mice fasted 16 hr, 120 min, mouse 4",12.0 ng/mL
same,in vivo half-life,[2]; Bglap-/- male mice fasted 16 hr,108 min
same,in vivo half-life,"[2]; Bglap-/- male mice fasted 16 hr, listed as non-glycosylated ucOCN",~ 108 min
same,serum OCN,"[2]; fed Bglap-/- male mice, 15 min, mouse 1",39.8 ng/mL
same,serum OCN,"[2]; fed Bglap-/- male mice, 15 min, mouse 2",45.5 ng/mL
same,serum OCN,"[2]; fed Bglap-/- male mice, 15 min, mouse 3",45.6 ng/mL
same,serum OCN,"[2]; fed Bglap-/- male mice, 15 min, mouse 4",45.1 ng/mL
same,serum OCN,"[2]; fed Bglap-/- male mice, 15 min, mouse 5",35.2 ng/mL
same,serum OCN,"[2]; fed Bglap-/- male mice, 15 min, mouse 6",29.7 ng/mL
same,serum OCN,"[2]; fed Bglap-/- male mice, 15 min, mouse 7",14.2 ng/mL
same,serum OCN,"[2]; fed Bglap-/- male mice, 15 min, mouse 8",30.7 ng/mL
same,serum OCN,"[2]; fed Bglap-/- male mice, 15 min, mouse 9",21.4 ng/mL
same,serum OCN,"[2]; fed Bglap-/- male mice, 30 min, mouse 1",67.5 ng/mL
same,serum OCN,"[2]; fed Bglap-/- male mice, 30 min, mouse 2",58.2 ng/mL
same,serum OCN,"[2]; fed Bglap-/- male mice, 30 min, mouse 3",51.8 ng/mL
same,serum OCN,"[2]; fed Bglap-/- male mice, 30 min, mouse 4",52.9 ng/mL
same,serum OCN,"[2]; fed Bglap-/- male mice, 30 min, mouse 5",43.5 ng/mL
same,serum OCN,"[2]; fed Bglap-/- male mice, 30 min, mouse 6",27.8 ng/mL
same,serum OCN,"[2]; fed Bglap-/- male mice, 30 min, mouse 7",13.8 ng/mL
same,serum OCN,"[2]; fed Bglap-/- male mice, 30 min, mouse 8",34.7 ng/mL
same,serum OCN,"[2]; fed Bglap-/- male mice, 30 min, mouse 9",14.9 ng/mL
same,serum OCN,"[2]; fed Bglap-/- male mice, 60 min, mouse 1",46.1 ng/mL
same,serum OCN,"[2]; fed Bglap-/- male mice, 60 min, mouse 2",20.7 ng/mL
same,serum OCN,"[2]; fed Bglap-/- male mice, 60 min, mouse 3",25.4 ng/mL
same,serum OCN,"[2]; fed Bglap-/- male mice, 60 min, mouse 4",25.6 ng/mL
same,serum OCN,"[2]; fed Bglap-/- male mice, 60 min, mouse 5",15.8 ng/mL
same,serum OCN,"[2]; fed Bglap-/- male mice, 60 min, mouse 6",8.8 ng/mL
same,serum OCN,"[2]; fed Bglap-/- male mice, 60 min, mouse 7",7.2 ng/mL
same,serum OCN,"[2]; fed Bglap-/- male mice, 60 min, mouse 8",10.7 ng/mL
same,serum OCN,"[2]; fed Bglap-/- male mice, 60 min, mouse 9",5.7 ng/mL
same,serum OCN,"[2]; fed Bglap-/- male mice, 90 min, mouse 1",16.3 ng/mL
same,serum OCN,"[2]; fed Bglap-/- male mice, 90 min, mouse 2",7.1 ng/mL
same,serum OCN,"[2]; fed Bglap-/- male mice, 90 min, mouse 3",9.0 ng/mL
same,serum OCN,"[2]; fed Bglap-/- male mice, 90 min, mouse 4",10.0 ng/mL
same,serum OCN,"[2]; fed Bglap-/- male mice, 90 min, mouse 5",6.0 ng/mL
same,serum OCN,"[2]; fed Bglap-/- male mice, 90 min, mouse 6",4.4 ng/mL
same,serum OCN,"[2]; fed Bglap-/- male mice, 90 min, mouse 7",4.7 ng/mL
same,serum OCN,"[2]; fed Bglap-/- male mice, 90 min, mouse 8",5.4 ng/mL
same,serum OCN,"[2]; fed Bglap-/- male mice, 90 min, mouse 9",4.0 ng/mL
same,serum OCN,"[2]; fed Bglap-/- male mice, 120 min, mouse 1",8.1 ng/mL
same,serum OCN,"[2]; fed Bglap-/- male mice, 120 min, mouse 2",4.4 ng/mL
same,serum OCN,"[2]; fed Bglap-/- male mice, 120 min, mouse 3",5.4 ng/mL
same,serum OCN,"[2]; fed Bglap-/- male mice, 120 min, mouse 4",6.0 ng/mL
same,serum OCN,"[2]; fed Bglap-/- male mice, 120 min, mouse 5",4.2 ng/mL
same,serum OCN,"[2]; fed Bglap-/- male mice, 120 min, mouse 6",3.7 ng/mL
same,serum OCN,"[2]; fed Bglap-/- male mice, 120 min, mouse 7",3.8 ng/mL
same,serum OCN,"[2]; fed Bglap-/- male mice, 120 min, mouse 8",4.1 ng/mL
same,serum OCN,"[2]; fed Bglap-/- male mice, 120 min, mouse 9",3.6 ng/mL
same,serum OCN,"[2]; fed Bglap-/- male mice, 180 min, mouse 1",1.9 ng/mL
same,serum OCN,"[2]; fed Bglap-/- male mice, 180 min, mouse 2",2.1 ng/mL
same,serum OCN,"[2]; fed Bglap-/- male mice, 180 min, mouse 3",1.8 ng/mL
same,serum OCN,"[2]; fed Bglap-/- male mice, 180 min, mouse 4",1.6 ng/mL
same,serum OCN,"[2]; fed Bglap-/- male mice, 180 min, mouse 5",3.4 ng/mL
same,serum OCN,"[2]; fed Bglap-/- male mice, 180 min, mouse 6",3.4 ng/mL
same,serum OCN,"[2]; fed Bglap-/- male mice, 180 min, mouse 7",3.4 ng/mL
same,serum OCN,"[2]; fed Bglap-/- male mice, 180 min, mouse 8",3.6 ng/mL
same,serum OCN,"[2]; fed Bglap-/- male mice, 180 min, mouse 9",3.4 ng/mL
same,Serum OCN at 120 minutes,"[2]; fed Bglap-/- male mice, dose 40 ng/g i.p., mouse 1",8.1 ng/mL
same,Serum OCN at 120 minutes,"[2]; fed Bglap-/- male mice, dose 40 ng/g i.p., mouse 2",4.4 ng/mL
same,Serum OCN at 120 minutes,"[2]; fed Bglap-/- male mice, dose 40 ng/g i.p., mouse 3",5.4 ng/mL
same,Serum OCN at 120 minutes,"[2]; fed Bglap-/- male mice, dose 40 ng/g i.p., mouse 4",6 ng/mL
same,Serum OCN at 120 minutes,"[2]; fed Bglap-/- male mice, dose 80 ng/g i.p., mouse 1",6.9 ng/mL
same,Serum OCN at 120 minutes,"[2]; fed Bglap-/- male mice, dose 80 ng/g i.p., mouse 2",5.7 ng/mL
same,Serum OCN at 120 minutes,"[2]; fed Bglap-/- male mice, dose 80 ng/g i.p., mouse 3",13 ng/mL
same,% OCN from initial (relative to maximum at 30 min),"[2]; 30 min, mouse 1",100.0%
same,% OCN from initial (relative to maximum at 30 min),"[2]; 30 min, mouse 2",100.0%
same,% OCN from initial (relative to maximum at 30 min),"[2]; 30 min, mouse 3",100.0%
same,% OCN from initial (relative to maximum at 30 min),"[2]; 30 min, mouse 4",100.0%
same,% OCN from initial (relative to maximum at 30 min),"[2]; 60 min, mouse 1",75.4%
same,% OCN from initial (relative to maximum at 30 min),"[2]; 60 min, mouse 2",76.8%
same,% OCN from initial (relative to maximum at 30 min),"[2]; 60 min, mouse 3",78.6%
same,% OCN from initial (relative to maximum at 30 min),"[2]; 60 min, mouse 4",88.7%
same,% OCN from initial (relative to maximum at 30 min),"[2]; 90 min, mouse 1",53.9%
same,% OCN from initial (relative to maximum at 30 min),"[2]; 90 min, mouse 2",65.1%
same,% OCN from initial (relative to maximum at 30 min),"[2]; 90 min, mouse 3",67.6%
same,% OCN from initial (relative to maximum at 30 min),"[2]; 90 min, mouse 4",78.8%
same,% OCN from initial (relative to maximum at 30 min),"[2]; 120 min, mouse 1",40.6%
same,% OCN from initial (relative to maximum at 30 min),"[2]; 120 min, mouse 2",54.6%
same,% OCN from initial (relative to maximum at 30 min),"[2]; 120 min, mouse 3",56.7%
same,% OCN from initial (relative to maximum at 30 min),"[2]; 120 min, mouse 4",71.4%
same,"% OCN from initial, mean used for 1/2 life",[2]; time 0 min of declining phase,100.0%
same,"% OCN from initial, mean used for 1/2 life",[2]; time 30 min of declining phase,79.9%
same,"% OCN from initial, mean used for 1/2 life",[2]; time 60 min of declining phase,66.3%
same,"% OCN from initial, mean used for 1/2 life",[2]; time 90 min of declining phase,55.8%
same,Ins1 gene expression (Fold change relative to vehicle),INS-1 832/3 cells [3]; replicate 1,0.663 Fold change
same,Ins1 gene expression (Fold change relative to vehicle),INS-1 832/3 cells [3]; replicate 2,1.9 Fold change
same,Ins1 gene expression (Fold change relative to vehicle),INS-1 832/3 cells [3]; replicate 3,0.6 Fold change
same,Ins1 gene expression (Fold change relative to vehicle),INS-1 832/3 cells [3]; replicate 4,1.4 Fold change
same,Ins1 gene expression (Fold change relative to vehicle),INS-1 832/3 cells [3]; replicate 5,0.337 Fold change
same,Ins1 gene expression (Fold change relative to vehicle),INS-1 832/3 cells [3]; replicate 6,0.4 Fold change
same,Ins1 gene expression (Fold change relative to vehicle),INS-1 832/3 cells [3]; replicate 7,2.7 Fold change
same,Ins1 gene expression (Fold change relative to vehicle),INS-1 832/3 cells [3]; replicate 8,3.6 Fold change
same,Ins1 gene expression (Fold change relative to vehicle),INS-1 832/3 cells [3]; replicate 9,2.4 Fold change
same,Ins1 gene expression (Fold change relative to vehicle),INS-1 832/3 cells [3]; replicate 10,1.3 Fold change
same,Ins1 expression increase,"INS-1 832/3 cells [3]; 0.3 ng/ml, quantitative PCR",1.5 fold
